Reference: patent US20260001928A1 (CORTERIA PHARMACEUTICALS, priority 2022, published 2026)
*1 amine or outer side, *2 acyl side, *3 side chain or, on linkers, in order; H or OH if unused. Where no end group is shown, it is not given here. Side-chain parts run from the residue outwards. [ ]: non-standard residue; d: D form. The star is where a group is joined. C18 diacid = O=C(O)CCCCCCCCCCCCCCCCC(=O)*; C16 diacid = O=C(O)CCCCCCCCCCCCCCC(=O)*; γGlu = O=C(O)[C@H](CCC(=O)[*:2])N[*:1]; NMeI = CC[C@H](C)[C@H](NC)C(=O)O; αMeL = CC(C)C[C@](C)(N)C(=O)O; AEEA = NCCOCCOCC(=O)O; Aib = CC(C)(N)C(=O)O

T1: CRF1R receptor (UniProt P34998 24-415, limits assumed)
T1 sequence (looked up): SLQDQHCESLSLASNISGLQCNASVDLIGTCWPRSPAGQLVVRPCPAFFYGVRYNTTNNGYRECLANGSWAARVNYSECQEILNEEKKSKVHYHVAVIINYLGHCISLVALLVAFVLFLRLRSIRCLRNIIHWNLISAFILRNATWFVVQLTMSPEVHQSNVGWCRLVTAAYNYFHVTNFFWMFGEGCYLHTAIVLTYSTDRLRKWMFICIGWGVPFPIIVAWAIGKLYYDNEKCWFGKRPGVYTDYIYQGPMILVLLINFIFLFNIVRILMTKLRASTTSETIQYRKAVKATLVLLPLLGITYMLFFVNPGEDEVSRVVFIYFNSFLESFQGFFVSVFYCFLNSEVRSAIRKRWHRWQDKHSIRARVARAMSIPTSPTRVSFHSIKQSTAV

B1: SEQ ID NO 64 (peptide)
peptide: [NMeI]VLSLD[dV]PIKLK([γGlu-C16 diacid])KILLEQEKQKKQREQAETN[Aib]QILAQV-NH2
modifications: N-terminus assumed
SMILES: CC[C@H](C)[C@H](NC)C(=O)N[C@H](C(=O)N[C@@H](CC(C)C)C(=O)N[C@@H](CO)C(=O)N[C@@H](CC(C)C)C(=O)N[C@@H](CC(=O)O)C(=O)N[C@@H](C(=O)N1CCC[C@H]1C(=O)N[C@H](C(=O)N[C@@H](CCCCN)C(=O)N[C@@H](CC(C)C)C(=O)N[C@@H](CCCCNC(=O)CC[C@H](NC(=O)CCCCCCCCCCCCCCC(=O)O)C(=O)O)C(=O)N[C@@H](CCCCN)C(=O)N[C@H](C(=O)N[C@@H](CC(C)C)C(=O)N[C@@H](CC(C)C)C(=O)N[C@@H](CCC(=O)O)C(=O)N[C@@H](CCC(N)=O)C(=O)N[C@@H](CCC(=O)O)C(=O)N[C@@H](CCCCN)C(=O)N[C@@H](CCC(N)=O)C(=O)N[C@@H](CCCCN)C(=O)N[C@@H](CCCCN)C(=O)N[C@@H](CCC(N)=O)C(=O)N[C@@H](CCCNC(=N)N)C(=O)N[C@@H](CCC(=O)O)C(=O)N[C@@H](CCC(N)=O)C(=O)N[C@@H](C)C(=O)N[C@@H](CCC(=O)O)C(=O)N[C@H](C(=O)N[C@@H](CC(N)=O)C(=O)NC(C)(C)C(=O)N[C@@H](CCC(N)=O)C(=O)N[C@H](C(=O)N[C@@H](CC(C)C)C(=O)N[C@@H](C)C(=O)N[C@@H](CCC(N)=O)C(=O)N[C@H](C(N)=O)C(C)C)[C@@H](C)CC)[C@@H](C)O)[C@@H](C)CC)[C@@H](C)CC)C(C)C)C(C)C
B2: SEQ ID NO 43 (peptide)
peptide: Ac-IVLSLDVPIK[αMeL]K([γGlu-C16 diacid])KILLEQEKQKKQREQAETN[Aib]QILAQV-NH2
SMILES: CC[C@H](C)[C@H](NC(C)=O)C(=O)N[C@H](C(=O)N[C@@H](CC(C)C)C(=O)N[C@@H](CO)C(=O)N[C@@H](CC(C)C)C(=O)N[C@@H](CC(=O)O)C(=O)N[C@H](C(=O)N1CCC[C@H]1C(=O)N[C@H](C(=O)N[C@@H](CCCCN)C(=O)N[C@@](C)(CC(C)C)C(=O)N[C@@H](CCCCNC(=O)CC[C@H](NC(=O)CCCCCCCCCCCCCCC(=O)O)C(=O)O)C(=O)N[C@@H](CCCCN)C(=O)N[C@H](C(=O)N[C@@H](CC(C)C)C(=O)N[C@@H](CC(C)C)C(=O)N[C@@H](CCC(=O)O)C(=O)N[C@@H](CCC(N)=O)C(=O)N[C@@H](CCC(=O)O)C(=O)N[C@@H](CCCCN)C(=O)N[C@@H](CCC(N)=O)C(=O)N[C@@H](CCCCN)C(=O)N[C@@H](CCCCN)C(=O)N[C@@H](CCC(N)=O)C(=O)N[C@@H](CCCNC(=N)N)C(=O)N[C@@H](CCC(=O)O)C(=O)N[C@@H](CCC(N)=O)C(=O)N[C@@H](C)C(=O)N[C@@H](CCC(=O)O)C(=O)N[C@H](C(=O)N[C@@H](CC(N)=O)C(=O)NC(C)(C)C(=O)N[C@@H](CCC(N)=O)C(=O)N[C@H](C(=O)N[C@@H](CC(C)C)C(=O)N[C@@H](C)C(=O)N[C@@H](CCC(N)=O)C(=O)N[C@H](C(N)=O)C(C)C)[C@@H](C)CC)[C@@H](C)O)[C@@H](C)CC)[C@@H](C)CC)C(C)C)C(C)C
B3: SEQ ID NO 40 (peptide)
peptide: Ac-IVLSLD[dV]PIKLK([γGlu-C16 diacid])KILLEQEKQKKQREQAETN[Aib]QILAQV-NH2
SMILES: CC[C@H](C)[C@H](NC(C)=O)C(=O)N[C@H](C(=O)N[C@@H](CC(C)C)C(=O)N[C@@H](CO)C(=O)N[C@@H](CC(C)C)C(=O)N[C@@H](CC(=O)O)C(=O)N[C@@H](C(=O)N1CCC[C@H]1C(=O)N[C@H](C(=O)N[C@@H](CCCCN)C(=O)N[C@@H](CC(C)C)C(=O)N[C@@H](CCCCNC(=O)CC[C@H](NC(=O)CCCCCCCCCCCCCCC(=O)O)C(=O)O)C(=O)N[C@@H](CCCCN)C(=O)N[C@H](C(=O)N[C@@H](CC(C)C)C(=O)N[C@@H](CC(C)C)C(=O)N[C@@H](CCC(=O)O)C(=O)N[C@@H](CCC(N)=O)C(=O)N[C@@H](CCC(=O)O)C(=O)N[C@@H](CCCCN)C(=O)N[C@@H](CCC(N)=O)C(=O)N[C@@H](CCCCN)C(=O)N[C@@H](CCCCN)C(=O)N[C@@H](CCC(N)=O)C(=O)N[C@@H](CCCNC(=N)N)C(=O)N[C@@H](CCC(=O)O)C(=O)N[C@@H](CCC(N)=O)C(=O)N[C@@H](C)C(=O)N[C@@H](CCC(=O)O)C(=O)N[C@H](C(=O)N[C@@H](CC(N)=O)C(=O)NC(C)(C)C(=O)N[C@@H](CCC(N)=O)C(=O)N[C@H](C(=O)N[C@@H](CC(C)C)C(=O)N[C@@H](C)C(=O)N[C@@H](CCC(N)=O)C(=O)N[C@H](C(N)=O)C(C)C)[C@@H](C)CC)[C@@H](C)O)[C@@H](C)CC)[C@@H](C)CC)C(C)C)C(C)C
B4: SEQ ID NO 118 (peptide)
peptide: [NMeI]VLSLD[dV]PIKLK([AEEA-AEEA-γGlu-C18 diacid])KILLEQEKQKKQREQAETN[Aib]QILAQV-NH2
modifications: N-terminus assumed
SMILES: CC[C@H](C)[C@H](NC)C(=O)N[C@H](C(=O)N[C@@H](CC(C)C)C(=O)N[C@@H](CO)C(=O)N[C@@H](CC(C)C)C(=O)N[C@@H](CC(=O)O)C(=O)N[C@@H](C(=O)N1CCC[C@H]1C(=O)N[C@H](C(=O)N[C@@H](CCCCN)C(=O)N[C@@H](CC(C)C)C(=O)N[C@@H](CCCCNC(=O)COCCOCCNC(=O)COCCOCCNC(=O)CC[C@H](NC(=O)CCCCCCCCCCCCCCCCC(=O)O)C(=O)O)C(=O)N[C@@H](CCCCN)C(=O)N[C@H](C(=O)N[C@@H](CC(C)C)C(=O)N[C@@H](CC(C)C)C(=O)N[C@@H](CCC(=O)O)C(=O)N[C@@H](CCC(N)=O)C(=O)N[C@@H](CCC(=O)O)C(=O)N[C@@H](CCCCN)C(=O)N[C@@H](CCC(N)=O)C(=O)N[C@@H](CCCCN)C(=O)N[C@@H](CCCCN)C(=O)N[C@@H](CCC(N)=O)C(=O)N[C@@H](CCCNC(=N)N)C(=O)N[C@@H](CCC(=O)O)C(=O)N[C@@H](CCC(N)=O)C(=O)N[C@@H](C)C(=O)N[C@@H](CCC(=O)O)C(=O)N[C@H](C(=O)N[C@@H](CC(N)=O)C(=O)NC(C)(C)C(=O)N[C@@H](CCC(N)=O)C(=O)N[C@H](C(=O)N[C@@H](CC(C)C)C(=O)N[C@@H](C)C(=O)N[C@@H](CCC(N)=O)C(=O)N[C@H](C(N)=O)C(C)C)[C@@H](C)CC)[C@@H](C)O)[C@@H](C)CC)[C@@H](C)CC)C(C)C)C(C)C
B5: SEQ ID NO 102 (peptide)
peptide: Ac-IVLSLDVPIKLK([AEEA-AEEA-γGlu-C18 diacid])KILLEQEKQKKQREQAETNVQILAQV-NH2
SMILES: CC[C@H](C)[C@H](NC(C)=O)C(=O)N[C@H](C(=O)N[C@@H](CC(C)C)C(=O)N[C@@H](CO)C(=O)N[C@@H](CC(C)C)C(=O)N[C@@H](CC(=O)O)C(=O)N[C@H](C(=O)N1CCC[C@H]1C(=O)N[C@H](C(=O)N[C@@H](CCCCN)C(=O)N[C@@H](CC(C)C)C(=O)N[C@@H](CCCCNC(=O)COCCOCCNC(=O)COCCOCCNC(=O)CC[C@H](NC(=O)CCCCCCCCCCCCCCCCC(=O)O)C(=O)O)C(=O)N[C@@H](CCCCN)C(=O)N[C@H](C(=O)N[C@@H](CC(C)C)C(=O)N[C@@H](CC(C)C)C(=O)N[C@@H](CCC(=O)O)C(=O)N[C@@H](CCC(N)=O)C(=O)N[C@@H](CCC(=O)O)C(=O)N[C@@H](CCCCN)C(=O)N[C@@H](CCC(N)=O)C(=O)N[C@@H](CCCCN)C(=O)N[C@@H](CCCCN)C(=O)N[C@@H](CCC(N)=O)C(=O)N[C@@H](CCCNC(=N)N)C(=O)N[C@@H](CCC(=O)O)C(=O)N[C@@H](CCC(N)=O)C(=O)N[C@@H](C)C(=O)N[C@@H](CCC(=O)O)C(=O)N[C@H](C(=O)N[C@@H](CC(N)=O)C(=O)N[C@H](C(=O)N[C@@H](CCC(N)=O)C(=O)N[C@H](C(=O)N[C@@H](CC(C)C)C(=O)N[C@@H](C)C(=O)N[C@@H](CCC(N)=O)C(=O)N[C@H](C(N)=O)C(C)C)[C@@H](C)CC)C(C)C)[C@@H](C)O)[C@@H](C)CC)[C@@H](C)CC)C(C)C)C(C)C

What was measured:
[1] = biological target: human corticotropin-releasing factor 2a (CRF2a receptor) (human), Q13324; test: cell-based or functional assay
human corticotropin-releasing factor 2a (CRF2a receptor) (human), Q13324, sequence (Q13324 20-411): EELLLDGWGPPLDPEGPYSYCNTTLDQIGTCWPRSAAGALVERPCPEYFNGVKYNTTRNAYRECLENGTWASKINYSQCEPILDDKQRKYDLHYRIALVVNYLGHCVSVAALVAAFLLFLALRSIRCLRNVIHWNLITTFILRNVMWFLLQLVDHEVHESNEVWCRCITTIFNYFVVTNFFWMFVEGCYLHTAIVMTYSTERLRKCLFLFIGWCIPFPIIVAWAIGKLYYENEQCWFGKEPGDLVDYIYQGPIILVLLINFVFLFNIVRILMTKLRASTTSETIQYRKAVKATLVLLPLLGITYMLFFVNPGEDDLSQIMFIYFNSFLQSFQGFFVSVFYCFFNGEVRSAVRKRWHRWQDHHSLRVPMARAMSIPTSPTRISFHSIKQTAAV

CRF1R receptor = biological target: T1, CRF1R receptor; test: cell-based or functional assay

| Binder | EC50 [nM] (cAMP) [1] | Emax (% I) (CRF1R receptor) [%] | EC50 (CRF1R receptor) [nM] |
| --- | --- | --- | --- |
| B1 | 0.19 | 4 | – |
| IVLSLD[dV]PIKLK([AEEA-AEEA-γGlu-γGlu-C16 diacid])QILLKQERQKKQREQAEKNKQILEQV-NH2 [SEQ ID NO 146] | 0.1 | 27 | 100 |
| B2 | 0.3 | 1 | – |
| B3 | 0.25 | 0 | – |
| Ac-IVLSLDVPIK[αMeL]K([γGlu-C16 diacid])KILLEQEKQKKQREQAETNVQILAQV-NH2 [SEQ ID NO 49] | 0.92 | -3 | – |
| B4 | 0.6 | 7 | – |
| B5 | 17.6 | -5 | – |
